Paper PMC5175346

Columns and labels:
Test in all cases: fluorescence anisotropy
PriA Y335A = PriA Y335A (Escherichia coli, UniProt P17888 1-732, Y335A)
PriA Q329A = PriA Q329A (Escherichia coli, UniProt P17888 1-732, Q329A)
PriA W333A = PriA W333A (Escherichia coli, UniProt P17888 1-732, W333A)
PriA K328A = PriA K328A (Escherichia coli, UniProt P17888 1-732, K328A)
PriA R334A = PriA R334A (Escherichia coli, UniProt P17888 1-732, R334A)
PriA Q330A = PriA Q330A (Escherichia coli, UniProt P17888 1-732, Q330A)
PriA wt = PriA wt (Escherichia coli, UniProt P17888 1-732)

Measured: binding result

B1: two-stranded fork, structure #1 (1b-98/3L-98) (structured_DNA)
DNA 1: GCAAGCCTTCTACAGGTCGACCGTCCATGGCGACTCGAGACCGCAATACGGATAAGGGCTGAGCACGCCGACGAACATTCACCACGCCAGACCACGTA
DNA 2: GACTATCTACGTCCGAGGCTCGCGCCGCAGACTCATTTAGCCCTTATCCGTATTGCGGTCTCGAGTCGCCATGGACGGTCGACCTGTAGAAGGCTTGC
binds: all assays above
